The values below are quoted from earlier work in US11340238B2 (Biocon Limited, priority 2015, dated 2022).

For the series the following is noted: Type 1 Diabetes Mellitus patients on RHI therapy.

Turning to recombinant Human insulin [RHI], the Cmax is given as roughly 100 mU/L.
